Experimental data as given in patent US20120171723A1 (published 2012).
“And” between values parts separate entries of the source, which are not always exact repeats. Equal entries are not always repeated.

Columns and labels:
Test in all cases: cell-based or functional assay
[1] = target: FGFR2α-IIIb expressed on transfected BAF3 cells
[2] = target: FGFR1α-IIIc expressed on transfected BAF3 cells
[3] = target: FGFR3α-IIIb expressed on transfected BAF3 cells
[4] = target: FGFR2α-IIIc expressed on transfected BAF3 cells
[5] = target: FGFR3α-IIIc expressed on transfected BAF3 cells
[6] = target: FGFR1α-IIIb expressed on transfected BAF3 cells
[7] = target: FGFR3α-IIIc expressed on transfected BAF3 cells; remark: listed apart in the source

Alamar Blue Units (proliferation of BAF3 cells expressing the receptor) at 1.6 ng/ml zFGF5 [1]: 0.2 Alamar Blue Units
Alamar Blue Units (proliferation of BAF3 cells expressing the receptor) at 3.1 ng/ml zFGF5 [1]: 0.06 Alamar Blue Units
Alamar Blue Units (proliferation of BAF3 cells expressing the receptor) at 6.2 ng/ml zFGF5 [1]: 0 Alamar Blue Units
Alamar Blue Units (proliferation of BAF3 cells expressing the receptor) at 12.5 ng/ml zFGF5 [1]: 0.4 Alamar Blue Units
Alamar Blue Units (proliferation of BAF3 cells expressing the receptor) at 25 ng/ml zFGF5 [1]: 0.2 Alamar Blue Units
Alamar Blue Units (proliferation of BAF3 cells expressing the receptor) at 50 ng/ml zFGF5 [1]: 0.5 Alamar Blue Units
Alamar Blue Units (proliferation of BAF3 cells expressing the receptor) at 100 ng/ml zFGF5 [1]: 1.3 Alamar Blue Units
Alamar Blue Units (proliferation of BAF3 cells expressing the receptor) at 200 ng/ml zFGF5 [1]: 1.3 Alamar Blue Units
Alamar Blue Units (proliferation of BAF3 cells expressing the receptor) at 1.6 ng/ml zFGF5 [2]: 2.6 Alamar Blue Units
Alamar Blue Units (proliferation of BAF3 cells expressing the receptor) at 3.1 ng/ml zFGF5 [2]: 4.2 Alamar Blue Units
Alamar Blue Units (proliferation of BAF3 cells expressing the receptor) at 6.2 ng/ml zFGF5 [2]: 14.2 Alamar Blue Units
Alamar Blue Units (proliferation of BAF3 cells expressing the receptor) at 12.5 ng/ml zFGF5 [2]: 29.9 Alamar Blue Units
Alamar Blue Units (proliferation of BAF3 cells expressing the receptor) at 25 ng/ml zFGF5 [2]: 86 Alamar Blue Units
Alamar Blue Units (proliferation of BAF3 cells expressing the receptor) at 50 ng/ml zFGF5 [2]: 224 Alamar Blue Units
Alamar Blue Units (proliferation of BAF3 cells expressing the receptor) at 100 ng/ml zFGF5 [2]: 488 Alamar Blue Units
Alamar Blue Units (proliferation of BAF3 cells expressing the receptor) at 200 ng/ml zFGF5 [2]: 912 Alamar Blue Units
Alamar Blue Units (proliferation of BAF3 cells expressing the receptor) at 1.6 ng/ml zFGF5 [3]: 0 Alamar Blue Units
Alamar Blue Units (proliferation of BAF3 cells expressing the receptor) at 3.1 ng/ml zFGF5 [3]: 0 Alamar Blue Units
Alamar Blue Units (proliferation of BAF3 cells expressing the receptor) at 6.2 ng/ml zFGF5 [3]: 0 Alamar Blue Units
Alamar Blue Units (proliferation of BAF3 cells expressing the receptor) at 12.5 ng/ml zFGF5 [3]: 0 Alamar Blue Units
Alamar Blue Units (proliferation of BAF3 cells expressing the receptor) at 25 ng/ml zFGF5 [3]: 1.4 Alamar Blue Units
Alamar Blue Units (proliferation of BAF3 cells expressing the receptor) at 50 ng/ml zFGF5 [3]: 19 Alamar Blue Units
Alamar Blue Units (proliferation of BAF3 cells expressing the receptor) at 100 ng/ml zFGF5 [3]: 189 Alamar Blue Units
Alamar Blue Units (proliferation of BAF3 cells expressing the receptor) at 200 ng/ml zFGF5 [3]: 472 Alamar Blue Units
Alamar Blue Units (proliferation of BAF3 cells expressing the receptor) at 1.6 ng/ml zFGF5 [4]: 241 Alamar Blue Units
Alamar Blue Units (proliferation of BAF3 cells expressing the receptor) at 3.1 ng/ml zFGF5 [4]: 480 Alamar Blue Units
Alamar Blue Units (proliferation of BAF3 cells expressing the receptor) at 6.2 ng/ml zFGF5 [4]: 715 Alamar Blue Units
Alamar Blue Units (proliferation of BAF3 cells expressing the receptor) at 12.5 ng/ml zFGF5 [4]: 977 Alamar Blue Units
Alamar Blue Units (proliferation of BAF3 cells expressing the receptor) at 25 ng/ml zFGF5 [4]: 1310 Alamar Blue Units
Alamar Blue Units (proliferation of BAF3 cells expressing the receptor) at 50 ng/ml zFGF5 [4]: 1520 Alamar Blue Units
Alamar Blue Units (proliferation of BAF3 cells expressing the receptor) at 100 ng/ml zFGF5 [4]: 1720 Alamar Blue Units
Alamar Blue Units (proliferation of BAF3 cells expressing the receptor) at 200 ng/ml zFGF5 [4]: 1790 Alamar Blue Units
Alamar Blue Units (proliferation of BAF3 cells expressing the receptor) at 1.6 ng/ml zFGF5 [5]: 1400 Alamar Blue Units
Alamar Blue Units (proliferation of BAF3 cells expressing the receptor) at 3.1 ng/ml zFGF5 [5]: 2000 Alamar Blue Units
Alamar Blue Units (proliferation of BAF3 cells expressing the receptor) at 6.2 ng/ml zFGF5 [5]: 2580 Alamar Blue Units
Alamar Blue Units (proliferation of BAF3 cells expressing the receptor) at 12.5 ng/ml zFGF5 [5]: 3200 Alamar Blue Units
Alamar Blue Units (proliferation of BAF3 cells expressing the receptor) at 25 ng/ml zFGF5 [5]: 3760 Alamar Blue Units
Alamar Blue Units (proliferation of BAF3 cells expressing the receptor) at 50 ng/ml zFGF5 [5]: 3960 Alamar Blue Units
Alamar Blue Units (proliferation of BAF3 cells expressing the receptor) at 100 ng/ml zFGF5 [5]: 4120 Alamar Blue Units
Alamar Blue Units (proliferation of BAF3 cells expressing the receptor) at 200 ng/ml zFGF5 [5]: 4200 Alamar Blue Units
Alamar Blue Units (proliferation of BAF3 cells expressing the receptor) at 1.6 ng/ml zFGF5 [6]: 0 Alamar Blue Units
Alamar Blue Units (proliferation of BAF3 cells expressing the receptor) at 3.1 ng/ml zFGF5 [6]: 1.7 Alamar Blue Units
Alamar Blue Units (proliferation of BAF3 cells expressing the receptor) at 6.2 ng/ml zFGF5 [6]: 1.3 Alamar Blue Units
Alamar Blue Units (proliferation of BAF3 cells expressing the receptor) at 12.5 ng/ml zFGF5 [6]: 0 Alamar Blue Units
Alamar Blue Units (proliferation of BAF3 cells expressing the receptor) at 25 ng/ml zFGF5 [6]: 10.9 Alamar Blue Units
Alamar Blue Units (proliferation of BAF3 cells expressing the receptor) at 50 ng/ml zFGF5 [6]: 0 Alamar Blue Units
Alamar Blue Units (proliferation of BAF3 cells expressing the receptor) at 100 ng/ml zFGF5 [6]: 0 Alamar Blue Units
Alamar Blue Units (proliferation of BAF3 cells expressing the receptor) at 200 ng/ml zFGF5 [6]: 0 Alamar Blue Units
EC50 of the cell proliferative response [7]: ~1 ng/mL and ~2 ng/mL
B1: human zFGF5 (FGF homolog polypeptide) (ligand)
chain: EENVDFRIHVENQTRARDDVSRKQLRLYQLYSRTSGKHIQVLGRRISARGEDGDKYAQLLVETDTFGSQVRIKGKETEFYLCMNRKGKLVGKPDGTSKECVFIEKVLENNYTALMSAKYSGWYVGFTKKGRPRKGPKTRENQQDVHFMKRYPKGQPELQKPFKYTTVTKRSRRIRPTHPA
